In series [1] the target is T1, wildtype human HMGCS1 (3-hydroxy-3-methylglutaryl-coenzyme A synthase) (human), Q01581.
T1 chain: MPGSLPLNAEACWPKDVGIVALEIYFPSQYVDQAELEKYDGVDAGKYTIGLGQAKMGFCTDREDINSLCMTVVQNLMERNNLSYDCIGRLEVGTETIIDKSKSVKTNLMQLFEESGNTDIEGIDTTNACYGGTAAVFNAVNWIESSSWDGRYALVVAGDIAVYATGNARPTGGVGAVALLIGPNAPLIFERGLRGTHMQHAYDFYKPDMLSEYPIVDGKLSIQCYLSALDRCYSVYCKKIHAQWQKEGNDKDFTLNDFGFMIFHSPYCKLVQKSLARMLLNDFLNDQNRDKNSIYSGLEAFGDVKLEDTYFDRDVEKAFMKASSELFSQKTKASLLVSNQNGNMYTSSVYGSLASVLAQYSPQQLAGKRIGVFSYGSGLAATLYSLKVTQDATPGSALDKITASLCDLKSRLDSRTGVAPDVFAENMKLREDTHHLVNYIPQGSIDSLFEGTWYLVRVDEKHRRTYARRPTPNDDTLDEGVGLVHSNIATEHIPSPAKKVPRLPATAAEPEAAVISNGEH
The experiment in a line: SEC. To be noted: remark: other sources report otherwise.

The series “SEC” deals with the molecule itself. The experiment in a line: SEC. (In general: Size exclusion chromatography separates by hydrodynamic size, large species first.)

Numbering of substitutions follows the chain as printed.

B1: wildtype human HMGCS1 (3-hydroxy-3-methylglutaryl-coenzyme A synthase), Q01581 1-520 (enzyme)
chain: T1 chain
The term stoichiometry N denotes the number of molecules, sites or subunits per partner or assembly. In turn, B1 came in with a stoichiometry N in series [1] of 2.

B2: human HMGCS1 p.Gln29Leu (enzyme, UniProt Q01581 1-520, looked up)
chain: T1 chain with Q29L
For the molecule B2, the “stoichiometry N” value in the series “SEC” was found to be 2.

B3: human HMGCS1 p.Cys268Ser (enzyme, UniProt Q01581 1-520, looked up)
chain: T1 chain with C268S
Regarding B3, the “stoichiometry N” value in the series “SEC” was 2.

B4: human HMGCS1 p.Met70Thr (enzyme, UniProt Q01581 1-520, looked up)
chain: T1 chain with M70T
As for B4, the “stoichiometry N” value in the series “SEC” is 2.

B5: human HMGCS1 p.Ser447Pro (enzyme, UniProt Q01581 1-520, looked up)
chain: T1 chain with S447P
Take B5: in “SEC”, the “stoichiometry N” value was determined as 2.

The values are drawn from article doi:10.1101/2023.10.25.23297129 (medRxiv, 2023).
